± gives the standard deviation of the averaged measurements.
What was measured:
[1] = system: VchCAST RNA-guided transposition machinery (E. coli BL21(DE3) host, lacZ target); assay: relative integration efficiency (T-RL orientation) vs wild-type transposon end (log2 (normalized fold change)); transposon end mutated: right end (5 bp flank + 75 bp right end); higher = more efficient transposition
Procedure, shortened: (§1)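 Co-transformation of E. coli BL21(DE3) combined a pUC57 mini-transposon donor, holding barcoded pools of 1549 left-end or 1849 right-end variants, with a T7-driven plasmid encoding a CRISPR array, tniQ-cas8-cas7-cas6 and tnsA-tnsB-tnsC. After plating with 0.1 mM IPTG at 37°C for 18 h, input plasmids and genomic integration junctions were PCR-amplified and Illumina-sequenced across two biological output replicates, with four reference barcodes. Relative integration efficiency is the normalised, log-transformed output/input barcode fold change.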

[2] = system: VchCAST RNA-guided transposition machinery (E. coli BL21(DE3) host, lacZ target); assay: relative integration efficiency (T-LR orientation) vs wild-type transposon end (log2 (normalized fold change)); transposon end mutated: right end (5 bp flank + 75 bp right end); higher = more efficient transposition
Procedure, shortened: as §1

Row | Sequence | relative integration efficiency (log2) [1] | relative integration efficiency (log2) [2]
1 | ACATTTGTTGATACAACCATAAAATGAGCATTACACCCATAAATTGATAATTATCACACCCATAAATTGATATTGCCTCTGATCATAGTCAGACCAACATTGCTACGACCCGTATTCGCACCGACAC | -0.394 ± 0.049 | -0.621 ± 0.017
2 | ACATTTGTGGATACAACCATAAAATGATAATTACCACCCCTACATTGATAATTATCACACCCATTTAACTATAACGCTCTGATCATAGTCAGACCAACATTGCTACGACCCGTATTCGCACCGACAC | -3.07 ± 0.21 | -0.503 ± 0.055
3 | ACATTTGTTGATACCACCATCAAATGATAATTCCACCCCTACATTGATAATTATCACACCCAATTTAACTATAACGCTCTGATCATAGTCAGACCAACATTGCTACGACCCGTATTCGCACCGACAC | -5.99 ± 0.51 | -2.15 ± 0.19
4 | ACATTTGTTGATACACCCATAAATTGATAATTACACCCATAAATTGATATTGCTCACACCCATAAATTGATAATTACTCTGATCATAGTCAGACCAACATTGCTACGACCCGTATTCGCACCGACAC | -0.735 ± 0.34 | 0.319 ± 0.23
5 | ACATTTGTTGATACAACCATAAAATGATAATTACAACCATATATTGATATCTCTCACAACCATAAGTTGATATTTTCTCTGATCATAGTCAGACCAACATTGCTACGACCCGTATTCGCACCGACAC | -0.374 ± 0.19 | -0.141 ± 0.5
6 | ACATTTGTTGATACAACCATAAAATGATAATTACACCCATAAATTGATAATTATCACCACCATAAATTGATATTGCCTCTGATCATAGTCAGACCAACATTGCTACGACCCGTATTCGCACCGACAC | 0.659 ± 0.12 | 1.14 ± 0.095
7 | ACATTTGTTGATACAACCATAAAATGATAATATCACCCATAAATTGATAATTATCACACCCATAAATTGATATTGCCTCTGATCATAGTCAGACCAACATTGCTACGACCCGTATTCGCACCGACAC | -0.188 ± 0.066 | -0.505 ± 0.091
8 | ACATTTGTTGATACAACCATTTAATGATAATTACACCCATAAATTGATAATTATCACACCCATAAATTGATATTGCCTCTGATCATAGTCAGACCAACATTGCTACGACCCGTATTCGCACCGACAC | -0.195 ± 0.052 | -0.232 ± 0.26
9 | ACATTTGGGTCTACAACCATAAAATGATAATTACACCCATAAATTGATAATTATCACACCCATAAATTGATATTGCCTCTGATCATAGTCAGACCAACATTGCTACGACCCGTATTCGCACCGACAC | -7.19 ± 1.1 | -4.93 ± 0.96
10 | ACATTGGTGGATACAACCATAAAATGATAATTACACCCATAAATTGATCATTATCACACCCAATTTAACTATAACGCTCTGATCATAGTCAGACCAACATTGCTACGACCCGTATTCGCACCGACAC | -6.97 ± 0.42 | -6.549 ± 0.042
11 | ACATTTGTTGATACAACCATAAAATGATAATTACACCCATAAATTGATAATTATCACACCCATAAATTGATATTGCCTCTGATCATAGTCAGACCAACCATAAAATGATAATTACAAGCACCGACAC | -0.253 ± 0.23 | -0.0296 ± 0.24
12 | ACATTTGTTGATACACCCATAAATTGATATTGCCACCCATAAATTGATATTGCTCACAACCATAAGTTGATATTTTCTCTGATCATAGTCAGACCAACATTGCTACGACCCGTATTCGCACCGACAC | -1.05 ± 0.16 | -0.179 ± 0.051
13 | ACATTTGTTGATACAACCATAAGTTGATATTTTCAACCATAAAATGATAATTATCACAACCATAAAGTGATATTTACTCTGATCATAGTCAGACCAACATTGCTACGACCCGTATTCGCACCGACAC | 0.0134 ± 0.036 | -0.26 ± 0.094
14 | ACATTTGTTGATACAACCATAAAATGATAATTACACCCATAAATTGATAATTATCACACCCATAAATTGATATTGCCTCTGATCCAACCATAAAATGATAATTAATAGTCAGACCAAGCACCGACAC | 0.156 ± 0.25 | 0.046 ± 0.066
15 | ACATTTGTTGATACAACCATAAAATGATAATTACAACCATAAAGTGATATTTATCACAACCATAAGTTGATATTTTCTCTGATCATAGTCAGACCAACATTGCTACGACCCGTATTCGCACCGACAC | -0.0894 ± 0.09 | -0.251 ± 0.14
16 | ACATTTGTTGATACAACCAGAAAATGATAATTACACCCAGAAATTGATAATTATCACACCCAGAAATTGATATTGCCTCTGATCATAGTCAGACCAACATTGCTACGACCCGTATTCGCACCGACAC | -5.0799 ± 0.0039 | -3.58 ± 1.1
17 | ACATTTGTTGATACAACCATAAAATGATAATTACACCCATAAATTGATAATTATCACACCCATAAATTGATATTGCCCAACCATAAAATGATAATTATCTGATCATAGTCAGACCAAGCACCGACAC | -0.0286 ± 0.28 | -0.886 ± 0.6
18 | ACATTTGTTGATACAACCATAAAATGATAATTACACCCATAAATTGATAATTATCACACCCATAAATTGATATTGCCTCTGATCATAGTCTTGTGAGCGGATAACAAAGACCAACATGCACCGACAC | 0.141 ± 0.16 | -0.0553 ± 0.18
19 | CAAAATGTAAAAAAAACCATACGTTGATTTTACGAAACCATACGCTGAAATAAAAACACCCATAAATTGATATTGCTTATAAAGTGTACAACACTTGAGAAAGTTTACTACAGGTATGCACCGACAC | -8.17 ± 0.95 | < -10
20 | ACATTTGTTGATACAACCATAAAATGCGAATTACACCCATAAATTGATAATTATCACACCCATAAATTGATATTGCCTCTGATCATAGTCAGACCAACATTGCTACGACCCGTATTCGCACCGACAC | -0.945 ± 0.22 | -0.35 ± 0.095
21 | ACATTTGTTGATAAAACCATAAAATGATTATTAGAAACCATAATCTGAAATTATCACACCCATAAATTGATATTGCCTCTGATCATAGTCAGACCAACATTGCTACGACCCGTATTCGCACCGACAC | -3.26 ± 0.065 | -2.22 ± 0.34
22 | ACATTTGTTGATACAACCATAAAATGATAATTACACCCATAAATTGATAATTATCACACCCATAAATTGATATTGCCTCTTCATGTGAGCCCAGGCAGTAAGTTTACGACATTTTCAGCACCGACAC | -1.91 ± 0.27 | 2.37 ± 0.34
23 | ACATTTGTTGATACAACCATAAAATCATCATTCACCCCTAAATTGATAATTATCACACCCACATTTAACTATAACGCTCTGATCATAGTCAGACCAACATTGCTACGACCCGTATTCGCACCGACAC | -5.66 ± 0.14 | -1.37 ± 0.066
24 | ACATTTGTTGATACAACCATAAAATGATAATTACACCCATAAATTGATAATTATCACACCCATAAATTGATATTGCCTCTGATCGTTTTAAGGATGACTTCAGTCGCGCCGTACTTCGCACCGACAC | -0.207 ± 0.2 | -0.209 ± 0.13
25 | ACATTTGTTGATACAACCATAAAATGATAATTACACCCATAAATTGATAATATAGACACCCATAAATTGATATTGCCTCTGATCATAGTCAGACCAACATTGCTACGACCCGTATTCGCACCGACAC | -0.321 ± 0.15 | -0.0877 ± 0.52
26 | ACATTTGTTGATACAACCATAAAATGATAATTACACCCATAAATTGATAATTATCCAACCCATAAATTGATATTGCCTCTGATCATAGTCAGACCAACATTGCTACGACCCGTATTCGCACCGACAC | -0.362 ± 0.18 | 0.964 ± 0.12
27 | ACATTTGTTGATACAACCATAAAATGATAATATCACCCATAAATTGATAATATTCACACCCATAAATTGATATTCGCTCTGATCATAGTCAGACCAACATTGCTACGACCCGTATTCGCACCGACAC | -0.471 ± 0.0068 | -0.639 ± 0.0008

Reference: the supplement of paper PMC10201428
